T1: N-acetyl-alanyl-alanyl-dioleoyl phosphatidylethanolamine
T1 chain: AA

T2: MeO-suc-ala-ala-pro-val-DOPE (1,2-Dioleoyl-sn-glycero-3-phosphoethanolamido-val-pro-ala-ala-sucMeO)
T2 chain: AAPV


Columns and labels:
[1] = biological target: T1, N-acetyl-alanyl-alanyl-dioleoyl …
[2] = biological target: T2, MeO-suc-ala-ala-pro-val-DOPE …

Protein | cleavage of N-Ac-AA-DOPE to DOPE, TLC [1] | cleavage of N-Ac-AA-DOPE, HPLC [1] | cleavage of N-Ac-ala-ala-DOPE, HPLC [1] | conversion of N-acetyl-ala-ala-DOPE to DOPE, 31P NMR integration [1] | cleavage of MeO-suc-ala-ala-pro-val-DOPE, TLC, HLE dose titration [2] | conversion of MeO-suc-AAPV-DOPE to DOPE, 31P-NMR [2] | conversion of exposed (outer leaflet) MeO-suc-AAPV-DOPE to DOPE, 31P-NMR, assuming unilamellar vesicles [2] | kinetics of cleavage of MeO-suc-ala-ala-pro-val-DOPE, TLC [2]
proteinase K (protein) AAQTNAPWGLARISSTSPGTSTYYYDESAGQGSCVYVIDTGIEASHPEFEGRAQMVKTYYYSSRDGNGHGTHCAGTVGSRTYGVAKKTQLFGVKVLDDNGSGQYSTIIAGMDFVASDKNNRNCPKGVVASLSLGGGYSSSVNSAAARLQSSGVMVAVAAGNNNADARNYSPASEPSVCTVGASDRYDRRSSFSNYGSVLDIFGPGTSILSTWIGGSTRSISGTSMATPHVAGLAAYLMTLGKTTAASACRYIADTANKGDLSNIPFGTVNLLAYNNYQA | Upon incubation of N-Ac-AA-DOPE liposomes with proteinase K the peptide-lipid was cleaved and DOPE was generated | Both elastase and proteinase K cleaved N-Ac-AA-DOPE to a similar extent | both proteinase K, with a known cleavage site, and the nonspecific mixture of proteases found in pronase, effected cleavage of N-Ac-ala-ala-DOPE from the liposomes | approximately 20% of the N-acetyl-ala-ala-DOPE was converted to pure DOPE in sample B | – | – | – | –
Human leukocyte elastase (protein) IVGGRRARPHAWPFMVSLQLRGGHFCGATLIAPNFVMSAAHCVANVNVRAVRVVLGAHNLSRREPTRQVFAVQRIFENGYDPVNLLNDIVILQLNGSATINANVQVAQLPAQGRRLGNGVQCLAMGWGLLGRNRGIASVLQELNVTVVTSLCRRSNVCTLVRGRQAGVCFGDSGSPLVCNGLIHGIASFVRGGCASGLYPDAFAPVAQFVNWIDSIIQ | Treatment of N-Ac-AA-DOPE liposomes with elastase generated a product corresponding to DOPE | Both elastase and proteinase K cleaved N-Ac-AA-DOPE to a similar extent | – | – | between 5-40 micrograms of HLE were effective in cleaving the AAPV-PE | Treatment with 5 micrograms of elastase/100 nmol lipid yielded 20% DOPE | the minimal percentage conversion of exposed MeO-suc-AAPV-DOPE (SEQ ID NO:42) to DOPE in the outer leaflet lipid of this preparation was 40% | The peptide was cleaved by HLE in as little as 1 hour at 37 degrees C.

Reference: US6339069
